Experimental data taken from patent publication US20070009529A1, “Agents that dissolve arterial thrombi” (New York University, priority 2002, published 2007).

Columns and labels:
platelets [1] = assay: Platelet 12(S)-HETE generation; format: cell-based
Text: Recombinant ADAMTS-18 was then made with the expression vector pBudCE4.1 in 293T cells. This peptide induced platelet 12(S)—HETE and oxidation/fragmentation in an identical kinetic fashion as anti-GPIIIa49-66 antibody. Both expressed rADAMTS-18, and HUVEC conditioned media ADAMTS-18 could be activated by thrombin (0.5μ/mL and then neutralized with hirudin), with optimum effect at one hour (n=4). HUVEC ADAMTS-18 induced oxidation fragmentation could be inhibited about 50% by an scFV antibody raised against the ADAMTS-18 (18-mer) peptide as well as GPIIIa49-66 peptide, as well as RGDS (GPIIIa ligand binding site) (n=7).

platelets [2] = assay: Platelet oxidation/fragmentation induced independently of anti-GPIIIa49-66 (DCHF-loaded platelets); format: cell-based

B1: Recombinant ADAMTS-18: recombinant disintegrin and metalloprotease with thrombospondin-like motifs, expressed with pBudCE4.1 in 293T cells (protein, UniProt Q8TE60 285-1221, looked up)
A disintegrin and …: SAGKSQKGLNVETLVVADKKMVEKHGKGNVTTYILTVMNMVSGLFKDGTIGSDINVVVVSLILLEQEPGGLLINHHADQSLNSFCQWQSALIGKNGKRHDHAILLTGFDICSWKNEPCDTLGFAPISGMCSKYRSCTINEDTGLGLAFTIAHESGHNFGMIHDGEGNPCRKAEGNIMSPTLTGNNGVFSWSSCSRQYLKKFLSTPQAGCLVDEPKQAGQYKYPDKLPGQIYDADTQCKWQFGAKAKLCSLGFVKDICKSLWCHRVGHRCETKFMPAAEGTVCGLSMWCRQGQCVKFGELGPRPIHGQWSAWSKWSECSRTCGGGVKFQERHCNNPKPQYGGLFCPGSSRIYQLCNINPCNENSLDFRAQQCAEYNSKPFRGWFYQWKPYTKVEEEDRCKLYCKAENFEFFFAMSGKVKDGTPCSPNKNDVCIDGVCELVGCDHELGSKAVSDACGVCKGDNSTCKFYKGLYLNQHKANEYYPVVLIPAGARSIEIQELQVSSSYLAVRSLSQKYYLTGGWSIDWPGEFPFAGTTFEYQRSFNRPERLYAPGPTNETLVFEILMQGKNPGIAWKYALPKVMNGTPPATKRPAYTWSIVQSECSVSCGGGYINVKAICLRDQNTQVNSSFCSAKTKPVTEPKICNAFSCPAYWMPGEWSTCSKACAGGQQSRKIQCVQKKPFQKEEAVLHSLCPVSTPTQVQACNSHACPPQWSLGPWSQCSKTCGRGVRKRELLCKGSAAETLPESQCTSLPRPELQEGCVLGRCPKNSRLQWVASSWSECSATCGLGVRKREMKCSEKGFQGKLITFPERRCRNIKKPNLDLEETCNRRACPAHPVYNMVAGWYSLPWQQCTVTCGGGVQTRSVHCVQQGRPSSSCLLHQKPPVLRACNTNFCPAPEKREDPSCVDFFNWCHLVPQHGVCNHKFYGKQCCKSCTRKI
modifications: recombinant, 293T-expressed
notes: recombinant disintegrin and metalloprotease with thrombospondin-like motifs, expressed with pBudCE4.1 in 293T cells
platelet 12(S)-HETE (platelets [1]): induced | platelet oxidation/fragmentation (platelets [2]; concentration not given): induced | time of optimum effect of activation by thrombin (platelets [2]; thrombin 0.5μ/mL, then neutralized with hirudin, n=4): one
